In US20040235714A1 (Amgen, published 2004):

Tests used:
[1] = target: T1, rat GDNF receptor-alpha (GDNFR-α) expressed on cells from the rat cDNA clone (rat, UniProt Q62997 25-430, GPI-anchored to the cell membrane); test: GDNF binding to 293T cells expressing GDNFR-α; low affinity sites
T1 construct: also called rGDNFR-α
T1 sequence: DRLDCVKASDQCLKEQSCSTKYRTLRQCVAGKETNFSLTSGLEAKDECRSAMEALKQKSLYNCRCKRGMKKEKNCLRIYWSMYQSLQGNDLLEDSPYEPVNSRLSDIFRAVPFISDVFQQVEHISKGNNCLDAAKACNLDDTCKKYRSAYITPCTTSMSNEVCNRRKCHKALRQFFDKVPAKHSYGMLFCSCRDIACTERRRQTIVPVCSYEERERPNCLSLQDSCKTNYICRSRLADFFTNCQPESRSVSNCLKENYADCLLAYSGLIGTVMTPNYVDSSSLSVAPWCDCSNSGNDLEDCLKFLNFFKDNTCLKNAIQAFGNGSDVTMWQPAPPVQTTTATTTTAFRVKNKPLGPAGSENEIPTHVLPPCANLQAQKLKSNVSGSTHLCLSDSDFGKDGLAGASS

[2] = target: T1, rat GDNF receptor-alpha (GDNFR-α) …; test: 50 pM [125I]GDNF on NGR-38 cells with or without excess unlabeled GDNF, gamma counting
Experimental: (§1) Neuro-2a cells were transfected with a mammalian expression vector containing the rat GDNFR-α cDNA (such as the expression plasmid described above). Three clonal lines, NGR-16, NGR-33, and NGR-38 were tested for their ability to bind [¹²⁵I]GDNF. The unbound [¹²⁵I]GDNF was removed at the end of the incubation and the amount of radioactivity associated with the cells was determined as described in Experimental Procedures. […] Binding could be effectively competed by the addition of 500 nM unlabeled GDNF.
(§2) Neuro-2a cells (ATCC #CCL 131) were transfected with an expression plasmid, as described above, using the Calcium Phosphate Transfection System (GIBCO/BRL) according to the manufacturer's directions. Transfected cells were selected for expression of the plasmid by growth in 400 μg/mL G418 antibiotic (Sigma). G418 resistant clones were expanded and assayed for GDNFR-α expression by binding to [¹²⁵I]GDNF (Amersham, Inc., custom iodination, catalog #IMQ1057). Cells from each clone were seeded at a density of 3×10⁴ cells/cm² in duplicate wells of 24-well tissue culture plates (Becton Dickinson) pre-coated with polyornithine. […] Cells were then washed four times with ice-cold washing buffer, lysed in 1 M NaOH, and the cell-associated radiolabel quantitated in a 1470 Wizard Automated Gamma Counter (Wallac Inc.). […]

[3] = target: T1, rat GDNF receptor-alpha (GDNFR-α) …; test: GDNF binding to 293T cells expressing GDNFR-α; high affinity sites
[4] = target: T2, human GDNFR-α Related Receptor 2 (GRR2), endogenously expressed on LA-N-5 neuroblastoma cells (human, UniProt O00451 22-444); test: summary of Example 10 (cell binding and cross-linking)
T2 construct: whole, on cells; GDNFR-α mRNA was not detected; The cells also express Ret; also called hGRR2
T2 sequence (looked up): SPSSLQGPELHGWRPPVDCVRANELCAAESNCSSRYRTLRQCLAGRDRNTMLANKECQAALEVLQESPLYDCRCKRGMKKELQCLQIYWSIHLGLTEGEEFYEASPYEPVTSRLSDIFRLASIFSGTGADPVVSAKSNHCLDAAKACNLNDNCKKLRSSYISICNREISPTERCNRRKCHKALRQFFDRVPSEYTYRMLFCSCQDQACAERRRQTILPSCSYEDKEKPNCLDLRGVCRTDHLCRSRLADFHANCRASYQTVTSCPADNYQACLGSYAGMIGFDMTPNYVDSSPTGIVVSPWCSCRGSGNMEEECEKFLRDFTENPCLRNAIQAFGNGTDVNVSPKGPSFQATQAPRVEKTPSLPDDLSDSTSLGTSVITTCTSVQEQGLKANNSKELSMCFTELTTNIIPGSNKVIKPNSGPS

[5] = target: T1, rat GDNF receptor-alpha (GDNFR-α) …; test: 50 pM [125I]GDNF on NGR-33 cells with or without excess unlabeled GDNF, gamma counting
Experimental: as §1, §2

[6] = target: T1, rat GDNF receptor-alpha (GDNFR-α) …; test: Scatchard analysis of GDNF binding to 293T cells transfected with a GDNFR-α cDNA clone in pBKRSV; low affinity site
[7] = target: T1, rat GDNF receptor-alpha (GDNFR-α) …; test: 50 pM [125I]GDNF on NGR-16 cells with or without excess unlabeled GDNF, gamma counting
Experimental: as §1, §2

[8] = target: T1, rat GDNF receptor-alpha (GDNFR-α) …; test: equilibrium binding of [125I]GDNF to NGR-38 cells, Scatchard plot; high affinity site
Experimental: (§3) Following incubation, unbound [¹²⁵I]GDNF was removed and the radioactivity associated with the cells was determined as described in Experimental Procedures. Results are depicted in FIG. 7: (A) Equilibrium binding of [¹²⁵I]GDNF to NGR-38 cells (circles) and Neuro-2a cells (squares) in the presence (open circles and open squares) or absence (filled circles and filled squares) of unlabeled GDNF; (B) Scatchard analysis of [¹²⁵I]GDNF binding to NGR-38 cells.
as §2

[9] = target: T1, rat GDNF receptor-alpha (GDNFR-α) …; test: equilibrium binding of [125I]GDNF to NGR-38 cells, Scatchard plot; low affinity site
Experimental: as §3, §2

| Binder | Kd [1] [nM] | ratio of [125I]GDNF bound in the absence and presence of unlabeled GDNF [2] | Kd [3] [nM] | binding result [4] | ratio of [125I]GDNF bound in the absence and presence of unlabeled GDNF [5] | Kd [6] [nM] | ratio of [125I]GDNF bound in the absence and presence of unlabeled GDNF [7] | Kd [8] [nM] | Kd [9] [nM] |
| --- | --- | --- | --- | --- | --- | --- | --- | --- | --- |
| glial cell line-derived neurotrophic factor (GDNF), recombinant human (ligand, UniProt P39905 78-211, looked up, radio-iodinated ([125I]) in the binding and cross-linking assays; unlabeled as competitor and in the phosphorylation assays, mature; also called unlabeled GDNF) SPDKQMAVLPRRERNRQAAAANPENSRGKGRRGQRGKNRGCVLTAIHLNVTDLGLGYETKEELIFRYCSGSCDAAETTYDKILKNLSRNRRLVSDKVGQACCRPIAFDDDLSFLDDNLVYHILRKHSAKRCGCI | ~0.2 | 16 | ~0.002 | binds | 8 | ~0.5 | 12.8 | 0.0015 | 0.332 |
| neurturin, recombinant human (ligand, UniProt Q99748 96-197, looked up, radio-iodinated ([125I]) in the binding and cross-linking assays; unlabeled as competitor and in the phosphorylation assays, mature; also called NTN) ARLGARPCGLRELEVRVSELGLGYASDETVLFRYCAGACEAAARVYDLGLRRLRQRRRLRRERVRAQPCCRPTAYEDEVSFLDAHSRYHTVHELSARECACV |  |  |  | binds |  |  |  |  |  |
